Data as given in the domain aggregation screens of Martell et al. (2025).

Test: soluble fraction after stress (log2 fold change); higher = more stays soluble; pooled small domains, quantitative proteomics
Settings: stress: 50 degC
Method in brief: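 Pooled custom libraries of small protein domains were measured in a high-throughput format, with quantitative proteomics as the read-out. Each library was stressed at 50°C. Aggregation propensity is given as the base-two logarithm of the fold change in how much of each protein stays soluble after the stress. Higher values mean a larger share of the protein remains in solution.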

| Sequence | soluble fraction (log2) |
| --- | --- |
| HMGSKEQELVILNNILERQLQAINLQKSAAGPMVNLRNVHNTLTKLVEAAGLKNVETYFTDPVIGAAQ | 0.0108 |
| HMLELLSMEDIQRTRVGDLIATVRQVDRQHALVLDRDPETGKPAVRGIFSLSQISLRLGLNI | -0.557 |
| HMRRADRLLQLIQILRRHRRPVTGDVMARELEVSLRTVYRDIATLTIEGVPIRGEAGVGYVLGEGY | -2.39 |
| HMSDIHARIAAALAALTSPEKIHDLVVDDDGKVSFTFHLTREDPATLVRDARKAVQAVDGVRDVKVNVVDP | 0.172 |
| HMIDLPDIDIDFAKRTGVLEHITHTPARLETGKQHNTGVYFTDIPRGVDGLATMDHKRAEQLGYFKLDML | 0.0268 |
| HMSKITNALLMMKLLSNGKVYSVKELSEELGVTERMVRNYKEQLEMSGYIIESFKGPGGGYFINKN | -1.61 |
| HMGLGDLEVVDSIGKIRRDGQQMILAFGRHKGRDVQEVYNEDPRYINWLLSPKGIEDENGRGKVRDYLGIN | 0.163 |
| HMRVESVGDRIRRLRKSLGLTQVKLAQMLGIKAPSVVQWESDKTNLSGENLLNAAKLFGVTPDYILYGG | -0.0657 |
| HMPSRPIQVASFSKEDNAKRAAEALAKIGVTATPQKSEKAGKAVWGVVVTGDDAMLQKIKDAGFADAYFL | 0.0921 |
| HMEPAPPPAAPPADPELQKRIDKLVEYIGKNGPEFEAVIRDKQHDNPDYAFVFGGEGHAYYRYLLWLLPRP | 0.00294 |
| HMNYEFLEKIGFSSNEAKVYGTLIKHKVLNGYEIAKLSGVARSLVYEVINRLVAKGAVIRIDGEPNFYKP | -1.8 |
| HMTTRQREALLDYLSRHPDQPLTVREIAAGVEPDGVSLSAVYRNLAELEAAGLIRRESRPGSREAVVQYV | 0.049 |
| HMNNYFPAYKGSATSIAPALKQMGVNNSYAYRSKIAAVNNITGYRGTPAQNTQMLNLLKQGRLIK | 0.362 |
| HMSGEDYLERILMLKEKHGNVRAIDIANSMNFSKPSVSIALHKLSENGYVVIQNNGAIELTEKGLEVAT | -0.315 |
| HMTNVDELIGKEAVVVKEIRPYTTGEVKLDGKVWRAMSESKQVYKVDEIVTVLRIEGVTMII | -0.419 |
| HMRTLGADLRALRKARGLTLAGMADNMGKSVGWMSQIERDISEPSISDLRALAKLLDVSVSSLFR | -2.23 |
| HMNTQGWEIFEGRITTADTDLNPSGWIRIDGQRIFVISDAGFIDKGKEVSILSVDGNRVLVRK | -0.641 |
| HMEPALYRLFMAHPELNASAVARRLGIAQSLLAQYISGSKKPSPERERMILTEIHKIGEELATAS | -0.65 |
| HMLKHNLLSELSRIEGVGAVKRKALMDKFGTVENIKRASEEELSEVAGIGPTLARTIKEQMNKDE | -0.184 |
| HMNLLPAGTYKLKDLVTAEDEEIGAKKGDVVIAHEDTPPSDRVLGVDIFPVIHKNTSKKIYVSLEDI | 0.46 |
| HMNLLGDNIRKLRLEKGLGLNEVARLANITGGYLSSIENNKRTNVGTEILESIAKAIGVSVSDFYL | -0.0298 |
| HMHGETLAAKRREEIKVRIQNIYDQSEQIFGYRKITATLRSQGVVVSEKLVSQLMRELEISSVS | -3.87 |
| HMRDPFDALSARERAVASLVQRGLRNKEVASELGLTEGTVKVHLHKVFDKLGIRGRTELILLAQER | -0.79 |
| HMSALIGAHTLERIDSRDFEGVVMAWLPKRDGYDSLYKIYHIEDGDFEELDDREVQAAISLFIEGT | -0.431 |
| HMVLRPDDVEDSLWREWVSHRKAKRAAVTEGVLKTFRQEATKASFTLADAMRKSIDRGWTGFEAEWVARET | -0.074 |
| HMAPSIPSGADIRAAREAAGINLRDFARIVDGPGIAIWSRYETGTPIRVKSISPEVWQKVRDFISQHG | -0.826 |

| Sequence | soluble fraction (log2) |
| --- | --- |
| HMQLSASQQQILNHAAVNTDGKLVWFPETLKGGARKKVLDSLFSRALITTDGTHWFVAAEGYEALGIP | -0.877 |
| HMSSQADEEALFKLLAANPYSDEQLEEIRIAIGSGIAYKDIIRIADIGNTAERMKQLRLEFTKDTAN | -0.0428 |
| HMNNLGSKIKELRIAENLTQEKLAEELNVSFQSISRWENGISTPDISLIPAIARFFGVSTDYLFGLQD | -0.384 |
| HMHPKDVPTRRELEVLQAVSEGLSTAEIGLRLDITENTVETFRRRLIQKFDAKNAIDLVVKAMAQGWIKV | -1.16 |
| HMAGPAGASEVANARDGDDETPLHMAARGGYPGIVRMLLAAGAKADAKSAAGLFPWNYAEDGSELHALLPR | 0.0684 |
| HMGEVPVETKDGIKVHVHTVDKSQTAYGISRLYNITLNELYESNPEAKLELSIGQKLYFPVK | -0.154 |
| HMLSFSEAERAVLSLLNRRPDLSAKALASELAVSARTVERYLQSLQQKGKLLRVGAKKGGYWQV | -0.478 |
| HMRLDVALRGVLLDGDPTQSRAFVLVSGTTSTYRLGETVQSAELVAINADTITLRTETGLHVIGFDGLI | -2.48 |
| HMKTKTAPPDSIPPAWLKESATLRPDLNQAQIKASAEVFLDHHRAKGTTLADWRPAWRNWIRRERA | 0.116 |
| HMTPKTSVPKPGQTVVVRKGDTIYALARIHDITPADLIAWNRLDNPSQIYPGQVIRLYPQGA | -0.107 |
| HMPASDPNEKQILRFLTEHQVITRKETQALLDVSQSTAGRVLKAMVDNGQIKQLGGSRNTRYELPM | -0.183 |
| HMDGPELYESMKAIVPDQLDRTIFLTGGAYTPRAQEFLARVPNQQMEKPFEFEALRSLLARLT | 0.0477 |
| HMERKMKNNISDQTTYDTDKILNFNGKGYLNGLVIPNNYQIKEEGYYVFRQVALDGREQILYFTIQDLS | -1.96 |
| HMQSYHVGDKVTIKNSASHWATGQSIYNGVKGHTYKIIQTNGHKLLLDQVISWINDGDVYKAGS | -0.492 |
| HMRVVPEILERAVAVFEALGVDRLPSSTLADRLGYDSPEALADVLRPLGVRPKKYRDGKSTARGYLAADLG | -0.473 |
| HMKEIPTKKGDMLEIYEANGKYILKYPTFNITMPEVVKEIPKEAVDSYLAGKHDGEELINYANFGFWKS | -0.185 |
| HMLEIQENFQNILKRMELSLSPLERRVLALYLSGYERSEIPEKTGIPLKTFDNALHRVRNKMK | -1.53 |
| HMYMFSGQRLKSLRKEKKMSQEKLGSLLNISKVAVSNWENAKSFPTMDNLNELAKVLEVEPHYF | -1.16 |
| HMVKSSVTEVISMINALPVTVKPEDKADIISARMAYDTLTEDEKALVTNYEILTAAETRFNELIATT | 0.205 |
| HMSNAIDDAVEKVISENLDLAKERGLQSMGPLMGLVMKELGGTADGKAVSEALRRKISEISD | 0.293 |
| HMVTINTASLEKAIADAKAVVKESYTTDSYNAMKAVLDEAEDLLKEEAQDQDTIDAKTEALNAAIEALVKR | 0.0369 |
| HMLLTHPKRVFTYELIMELVWNEDYTFYSKKAVSNHMSNLRKKLKVTPDALDYIKNIVGVGYKFEA | -0.759 |
| HMETYNLDVGDSAVLQYQNVSRISVGNPDVLDAIPLDKSQILLTGKATGGAALIVWDSKGMHMEKVMVHPA | -0.156 |
| HMSAEKPVKSELFYKSMLNSFEQAVRFMIANGILEDFKSRIVAINNETNHQNWFNKQEFNAIIERF | -0.449 |
| HMYEVDGLGIRIAQLRKKQDLTQEAFARTLGVSPQAVSKWETGIGYPDITLLPQIAKELGVSIDQLFGRN | 0.065 |
| HMVTEIDYGAFIKMTEEGNIGEVKIEDNQIVFTDKENKAIYKTGIMPDSDLTQRLYDSGAVFA | 0.0785 |

| Sequence | soluble fraction (log2) |
| --- | --- |
| HMNATQLSNTQKQIRTQLLERLSNNPLTVKQLADRMFVPIDTILKEITALIQEQKIIEDKGGKLQIN | 0.0217 |
| HMSMRILNHTVVKILKRYRIATDEQLQPLLDEAERSGRSLQDVVLDAKLVSETELTKLFADYAD | -0.0864 |
| HMKAQVKSVLDDIPGIGQTRRKALMRYFKSLEKIREASVEELKEADAMNERAAQSVYAFFHK | -0.471 |
| HMLGAGFDSDLTARENIFLNGALLGHSRAVMRGYYDDIVNFAELHDFMDVPVKNFSSGMTSRLAFSIATIG | 0.00802 |
| HMNLDVEQIKKEALNQLIEIGNENDGIVTIKDFKKIDDISSLDEDDIEDIRNLLIENNIEIFE | 0.127 |
| HMNYHDTLSYLMDAFGGADNLQKLLGVGPSALSNYRRREHLPLNQARKLSNIAPEFGFNLDPYTLKISVID | -1.57 |
| HMSAIKSVTTQLDNTKLRTGPDVSYQYTQSYPANTKLTYINKSGTWYQVKDADGNTGYVASWVVTPSE | 0.236 |
| HMITTEEVLNRIRKKVDHPATIRELQKALSIADDDRHRFRRRIRTLVASGALVRIRGNRYGLPSK | -0.275 |
| HMARTIINLPLRNSVDESYNTTVNILQANGFKEVSYNGETVWKKGTGLLTAMQYIKIEFTDTTLVVSGWVQ | ≥ 0.62 |
| HMRILGIDPGSVVTGYGVIDKSGNYLRHVLHGEIKPHKGYLLSEVLMDIFSKLSAVIVETNPQSV | -0.0179 |
| HMIDSDENERIKELIKALISETLKSRGVSPEVISDIKERVDRLHNEELPRFAAELKELISRN | 0.119 |
| HMKFPPELVEFIEGLSLLKPPLNYATVHRRAEKLAIKKGWASPSYSTVRNIIRKLSPALTTLAHEG | -2.15 |
| HMSADIGAEKAKTIALNHAGVSASNAVFLHAKLDYDDGRRTYEVEFYSGSKEYDYEIDAATGEILSYDFD | -0.777 |
| HMEKMLENIDLKAAVEALPEREKKVILLRYYRGMTQDAAAKVMKVSQVQISRIEKRAIEILREKL | -1.52 |
| HMTEDQDWAIFKQKLKAQTEIDLDLYKEPQMKHRIKNLIQNAGFDSYVQYFDYVYLNQDRLAAFLENLTV | 0.0704 |
| HMNYTYTVPEGIRYLRADKALALAFPDHSRTALQRAFDSGLVTLRGVAIKRDQSVTALDTLEFAMPDI | -0.81 |
| HMQKFLEATGENRDAAVENALEQLGLERDDVSVEVLEIGKKGFLGIGATPARVRVTYEAPDI | -0.0313 |
| HMTHRRLELTLDAIDERLDRALTAAVPELSRMQWQRLIREGLVTVDGERARPSYRIQGGETLVALVPEV | -0.234 |
| HMDEDTWKLYKRAYKKYYARYMKGNMSEEAFKTWAAQAARDRDAAIEQVKAALDENLKAQVIERLKEELNR | -0.407 |
| HMLWTHIALPVRSLDDTMAFYDKYTTLENIHERQDPETNMRSVWLANPGDKTEQAARFVLVLI | -0.116 |
| HMKPDSEFTSQDLWQNDLAGTGSAAYRRDKMGALLGIGYGNAKRFLERLNSYGVTRSEFDEALAQLGE | -0.0612 |
| HMNLESNQYVIDISDSQVINKDEFETILNQNKTKDIVIKSNNNVTFTFEKGSMIGAEGKDNYDFSSQVNY | -0.0368 |
| HMGDFNYVMPDFRGLEAHDVSSFLNRNGFLLRPTEHEVSFTQRPGLILMHYPEPGYPFSRSSPITLVVS | -1.03 |
| HMLISAESVKRRLEMIRHLILLGDYEDVTAQVIKLNPAANEYKLTPIIEELNGGKYQEALEKINSYLSKF | 0.0802 |
